Assay: protein stability index of a GFP-peptide fusion (GPS, HEK-293T) (PSI 1-6); higher = more stable
Conditions: c terminus: native
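Also: lentivirally expressed fusion library, cells FACS-sorted into six equal-sized GFP/DsRed ratio bins, PSI computed from sequencing read fractions per bin weighted by bin number.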

**Q.** With DGWIRVSSDNVADLHEKYSGSTPW [PSMB5 addW] as the protein, how does the protein stability index (parent: NP_002788.1) read?
**A.** Its protein stability index is 3.46.

**Q.** With CQPISFSGFGAEDDDLGGLGLGPW [POLD2 addW] as the protein, how does the protein stability index (parent: NP_006221.1) read?
**A.** Its protein stability index is 2.02.

**Q.** For HSLRAVSTDPPHHDHHDEFCLMPW [BEX2 addW], which protein stability index (parent: NP_116010.1) is on record?
**A.** The protein stability index was 3.48.

**Q.** With EQRNSRWNTVLRAVKAKTHHLEPW [TRPA1 addW] as the protein, how does the protein stability index (parent: NP_015628.1) read?
**A.** The protein stability index was 3.58.

**Q.** Which protein stability index (parent: NP_009172.2) does the source give for LPALFTDLYSQEITAEEAREALPW [SNF8 addW] here?
**A.** The protein stability index was 3.4.

From the supplement of paper PMC10567573
